What is called Kd is the constant that tells how readily two partners part at equilibrium. In general, koff refers to the first-order rate constant of dissociation.

B1: VH0/VK1 (antibody, V domains shown)
VH: QVQLQQSGAELVRPGTSVKVSCKASGYAFSNYFIEWVKQRPGQGLEWIGLNIPGSGGSNYAEKFKGKATLTADKSSSTAYMQLSSLTSEDSAVYFCARRRLPPDWYFDVWGTGTTVTVSS
VL: DVVMTQSPLSLPVTLGQPASISCRSSQSLVHSDGNTYLHWYQQKPGQPPKLLIYKVSNRFSGVPDRFSGSGSGTDFTLKISRVEAEDVGVYFCSQSTHVPWTFGGGTKVEIK
notes: hIgG1 backbone, CHO expressed
B2: VH4/VK2 (antibody, V domains shown)
VH: QVQLVQSGAEVKKPGSSVKVSCKASGYAFSNYFIEWVKQPPGKGLEWIGLNIPGSGGSNYAEKFKGRVTITADKSTSTAYMELSSLRSEDTAVYYCARRRLPPDWYFDVWGQGTTVTVSS
VL: DVVMTQSPLSLPVTLGQPASISCRSSQSLVHSDGNTYLHWYQQKPGQPPKLLIYKVSNRFSGVPDRFSGSGSGTDFTLKISRVEAEDVGVYYCSQSTHVPWTFGGGTKVEIK
notes: hIgG1 backbone, CHO expressed
B3: VH1/VK2 (antibody, V domains shown)
VH: QVQLVQSGAELKKPGSSVKVSCKASGYAFSNYFIEWVKQPPGKGLEWIGLNIPGSGGSNYAEKFKGRATITADKSTSTAYMELSSLTSEDSAVYFCARRRLPPDWYFDVWGQGTTVTVSS
VL: DVVMTQSPLSLPVTLGQPASISCRSSQSLVHSDGNTYLHWYQQKPGQPPKLLIYKVSNRFSGVPDRFSGSGSGTDFTLKISRVEAEDVGVYYCSQSTHVPWTFGGGTKVEIK
notes: hIgG1 backbone, CHO expressed
B4: VH7/VK1 (antibody, V domains shown)
VH: QVQLVQSGAELKKPGSSVKVSCKASGYAFSNYFIEWVKQPPGKGLEWIGLNIPGSGGSNYAEKFKGRATITADKSTSTAYMELSSLRSEDTAVYYCARRRLPPDWYFDVWGQGTTVTVSS
VL: DVVMTQSPLSLPVTLGQPASISCRSSQSLVHSDGNTYLHWYQQKPGQPPKLLIYKVSNRFSGVPDRFSGSGSGTDFTLKISRVEAEDVGVYFCSQSTHVPWTFGGGTKVEIK
notes: hIgG1 backbone, CHO expressed
B5: VH3/VK1 (antibody, V domains shown)
VH: QVQLVQSGAEVKKPGSSVKVSCKASGYAFSNYFIEWVKQPPGKGLEWIGLNIPGSGGSNYAEKFKGRVTITADKSTSTAYMELSSLRSEDSAVYFCARRRLPPDWYFDVWGQGTTVTVSS
VL: DVVMTQSPLSLPVTLGQPASISCRSSQSLVHSDGNTYLHWYQQKPGQPPKLLIYKVSNRFSGVPDRFSGSGSGTDFTLKISRVEAEDVGVYFCSQSTHVPWTFGGGTKVEIK
notes: hIgG1 backbone, CHO expressed
B6: VH1/VK3 (antibody, V domains shown)
VH: QVQLVQSGAELKKPGSSVKVSCKASGYAFSNYFIEWVKQPPGKGLEWIGLNIPGSGGSNYAEKFKGRATITADKSTSTAYMELSSLTSEDSAVYFCARRRLPPDWYFDVWGQGTTVTVSS
VL: DVVMTQSPLSLPVTLGQPASISCRSSQSLVHSGGNTYLHWYQQKPGQPPKLLIYKVSNRFSGVPDRFSGSGSGTDFTLKISRVEAEDVGVYFCSQSTHVPWTFGGGTKVEIK
notes: hIgG1 backbone, CHO expressed
B7: VH4/VK3 (antibody, V domains shown)
VH: QVQLVQSGAEVKKPGSSVKVSCKASGYAFSNYFIEWVKQPPGKGLEWIGLNIPGSGGSNYAEKFKGRVTITADKSTSTAYMELSSLRSEDTAVYYCARRRLPPDWYFDVWGQGTTVTVSS
VL: DVVMTQSPLSLPVTLGQPASISCRSSQSLVHSGGNTYLHWYQQKPGQPPKLLIYKVSNRFSGVPDRFSGSGSGTDFTLKISRVEAEDVGVYFCSQSTHVPWTFGGGTKVEIK
notes: hIgG1 backbone, CHO expressed
B8: VH3/VK2 (antibody, V domains shown)
VH: QVQLVQSGAEVKKPGSSVKVSCKASGYAFSNYFIEWVKQPPGKGLEWIGLNIPGSGGSNYAEKFKGRVTITADKSTSTAYMELSSLRSEDSAVYFCARRRLPPDWYFDVWGQGTTVTVSS
VL: DVVMTQSPLSLPVTLGQPASISCRSSQSLVHSDGNTYLHWYQQKPGQPPKLLIYKVSNRFSGVPDRFSGSGSGTDFTLKISRVEAEDVGVYYCSQSTHVPWTFGGGTKVEIK
notes: hIgG1 backbone, CHO expressed
B9: VH3/VK3 (antibody, V domains shown)
VH: QVQLVQSGAEVKKPGSSVKVSCKASGYAFSNYFIEWVKQPPGKGLEWIGLNIPGSGGSNYAEKFKGRVTITADKSTSTAYMELSSLRSEDSAVYFCARRRLPPDWYFDVWGQGTTVTVSS
VL: DVVMTQSPLSLPVTLGQPASISCRSSQSLVHSGGNTYLHWYQQKPGQPPKLLIYKVSNRFSGVPDRFSGSGSGTDFTLKISRVEAEDVGVYFCSQSTHVPWTFGGGTKVEIK
notes: hIgG1 backbone, CHO expressed
B10: VH4/VK1 (antibody, V domains shown)
VH: QVQLVQSGAEVKKPGSSVKVSCKASGYAFSNYFIEWVKQPPGKGLEWIGLNIPGSGGSNYAEKFKGRVTITADKSTSTAYMELSSLRSEDTAVYYCARRRLPPDWYFDVWGQGTTVTVSS
VL: DVVMTQSPLSLPVTLGQPASISCRSSQSLVHSDGNTYLHWYQQKPGQPPKLLIYKVSNRFSGVPDRFSGSGSGTDFTLKISRVEAEDVGVYFCSQSTHVPWTFGGGTKVEIK
notes: hIgG1 backbone, CHO expressed
B11: VH2/VK1 (antibody, V domains shown)
VH: QVQLVQSGAEVKKPGSSVKVSCKASGYAFSNYFIEWVKQPPGKGLEWIGLNIPGSGGSNYAEKFKGRATITADKSTSTAYMELSSLRSEDSAVYFCARRRLPPDWYFDVWGQGTTVTVSS
VL: DVVMTQSPLSLPVTLGQPASISCRSSQSLVHSDGNTYLHWYQQKPGQPPKLLIYKVSNRFSGVPDRFSGSGSGTDFTLKISRVEAEDVGVYFCSQSTHVPWTFGGGTKVEIK
notes: hIgG1 backbone, CHO expressed
B12: VH1/VK1 (antibody, V domains shown)
VH: QVQLVQSGAELKKPGSSVKVSCKASGYAFSNYFIEWVKQPPGKGLEWIGLNIPGSGGSNYAEKFKGRATITADKSTSTAYMELSSLTSEDSAVYFCARRRLPPDWYFDVWGQGTTVTVSS
VL: DVVMTQSPLSLPVTLGQPASISCRSSQSLVHSDGNTYLHWYQQKPGQPPKLLIYKVSNRFSGVPDRFSGSGSGTDFTLKISRVEAEDVGVYFCSQSTHVPWTFGGGTKVEIK
notes: hIgG1 backbone, CHO expressed
B13: VH2/VK2 (antibody, V domains shown)
VH: QVQLVQSGAEVKKPGSSVKVSCKASGYAFSNYFIEWVKQPPGKGLEWIGLNIPGSGGSNYAEKFKGRATITADKSTSTAYMELSSLRSEDSAVYFCARRRLPPDWYFDVWGQGTTVTVSS
VL: DVVMTQSPLSLPVTLGQPASISCRSSQSLVHSDGNTYLHWYQQKPGQPPKLLIYKVSNRFSGVPDRFSGSGSGTDFTLKISRVEAEDVGVYYCSQSTHVPWTFGGGTKVEIK
notes: hIgG1 backbone, CHO expressed
B14: VH7/VK3 (antibody, V domains shown)
VH: QVQLVQSGAELKKPGSSVKVSCKASGYAFSNYFIEWVKQPPGKGLEWIGLNIPGSGGSNYAEKFKGRATITADKSTSTAYMELSSLRSEDTAVYYCARRRLPPDWYFDVWGQGTTVTVSS
VL: DVVMTQSPLSLPVTLGQPASISCRSSQSLVHSGGNTYLHWYQQKPGQPPKLLIYKVSNRFSGVPDRFSGSGSGTDFTLKISRVEAEDVGVYFCSQSTHVPWTFGGGTKVEIK
notes: hIgG1 backbone, CHO expressed
B15: VH2/VK3 (antibody, V domains shown)
VH: QVQLVQSGAEVKKPGSSVKVSCKASGYAFSNYFIEWVKQPPGKGLEWIGLNIPGSGGSNYAEKFKGRATITADKSTSTAYMELSSLRSEDSAVYFCARRRLPPDWYFDVWGQGTTVTVSS
VL: DVVMTQSPLSLPVTLGQPASISCRSSQSLVHSGGNTYLHWYQQKPGQPPKLLIYKVSNRFSGVPDRFSGSGSGTDFTLKISRVEAEDVGVYFCSQSTHVPWTFGGGTKVEIK
notes: hIgG1 backbone, CHO expressed
B16: VH1/VK0 (antibody, V domains shown)
VH: QVQLVQSGAELKKPGSSVKVSCKASGYAFSNYFIEWVKQPPGKGLEWIGLNIPGSGGSNYAEKFKGRATITADKSTSTAYMELSSLTSEDSAVYFCARRRLPPDWYFDVWGQGTTVTVSS
VL: DVVMTQTPLSLPVSLGDQASISCRSSQSLVHSDGNTYLHWYLQKPGQSPKLLIYKVSNRFSGVPDRFSGSGSGTDFTLKISRVEAEDLGVYFCSQSTHVPWTFGGGTKLEIK
notes: hIgG1 backbone, CHO expressed

The target in this experiment is T1, recombinant human PD-L2 (human PD-L2 antigen) (human, UniProt Q9BQ51 20-219, limits assumed).
T1 construct: The Biacore analyte and the ELISA antigen are only called human PD-L2 antigen / recombinant hPD-L2; Whole entry named; also called hPD-L2; recombinant hPD-L2
T1 sequence (looked up): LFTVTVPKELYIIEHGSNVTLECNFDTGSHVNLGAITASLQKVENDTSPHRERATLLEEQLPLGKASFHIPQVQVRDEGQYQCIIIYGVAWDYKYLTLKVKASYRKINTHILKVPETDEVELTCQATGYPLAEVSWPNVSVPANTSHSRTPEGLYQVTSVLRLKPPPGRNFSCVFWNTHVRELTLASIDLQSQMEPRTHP
Put plainly: SPR (Biacore 8K), single cycle kinetics, antibody in culture supernatant, human PD-L2 antigen. The source says: Table 2: Single cycle kinetic parameters of chimeric (VH0/VK0) and humanized variants (tested as cell culture supernatants) binding to human PD-L2 antigen as determined using the Biacore 8K. As used herein, the term “KD” is intended to refer to the dissociation equilibrium constant of a particular antibody-antigen interaction, ka is the binding rate constant and kd is the dissociation rate constant. The binding affinity of antibodies of the disclosed invention may be measured or determined by standard antibody-antigen assays. The relative KD was calculated by dividing the KD of the humanized variant by that of the VH0/VK0 assayed in the same experiment.
(In general: In SPR one partner is held on a chip, and binding of the other changes the refractive index at the surface.)
In the case of B1, the Kd amounted to 0.0379 nM, the “Relative KD (KD of variant / KD of VH0/VK0)” value was found to be 1.06 and the koff amounted to 9.88e-05 s⁻¹.
As for B2, the Kd was 0.0596 nM, the “Relative KD (KD of variant / KD of VH0/VK0)” value turned out to be 1.66 and the koff worked out at 0.000129 s⁻¹.
As for B3, the dissociation constant (Kd) was determined as 0.0487 nM, the “Relative KD (KD of variant / KD of VH0/VK0)” value was 1.36 and the koff came to 0.000116 s⁻¹.
As for B4, the Kd came to 0.0499 nM, the “Relative KD (KD of variant / KD of VH0/VK0)” value is 1.39 and the koff came to 0.000113 s⁻¹.
With B5, the Kd was 0.0606 nM, the “Relative KD (KD of variant / KD of VH0/VK0)” value stood at 1.69 and the koff is 0.000128 s⁻¹.
For the molecule B6, the Kd amounted to 0.223 nM, the “Relative KD (KD of variant / KD of VH0/VK0)” value was 6.23 and the koff came to 0.000365 s⁻¹.
For the molecule B7, the Kd amounted to 0.287 nM, the “Relative KD (KD of variant / KD of VH0/VK0)” value turned out to be 8.02 and the koff was 0.000466 s⁻¹.
B8: the Kd came to 0.0604 nM, the “Relative KD (KD of variant / KD of VH0/VK0)” value was found to be 1.69 and the koff was found to be 0.000132 s⁻¹.
As for B9, the Kd worked out at 0.314 nM, the “Relative KD (KD of variant / KD of VH0/VK0)” value was 8.77 and the koff worked out at 0.000497 s⁻¹.
Consider B10, for which the Kd was found to be 0.0586 nM, the “Relative KD (KD of variant / KD of VH0/VK0)” value was found to be 1.64 and the koff was found to be 0.000125 s⁻¹.
In the case of B11, the Kd was 0.0551 nM, the “Relative KD (KD of variant / KD of VH0/VK0)” value is 1.54 and the koff turned out to be 0.000119 s⁻¹.
The like results for B12 were, in that order, 0.0475 nM, 1.33 and 0.00011 s⁻¹.
In the case of B13, the Kd was 0.0555 nM, the “Relative KD (KD of variant / KD of VH0/VK0)” value amounted to 1.55 and the koff is 0.000122 s⁻¹.
As for B14, the Kd stood at 0.222 nM, the “Relative KD (KD of variant / KD of VH0/VK0)” value was found to be 6.2 and the koff was 0.000344 s⁻¹.
Consider B15, for which the Kd was 0.267 nM, the “Relative KD (KD of variant / KD of VH0/VK0)” value came out at 7.46 and the koff worked out at 0.000414 s⁻¹.
For the molecule B16, the Kd stood at 0.0427 nM, the “Relative KD (KD of variant / KD of VH0/VK0)” value was 1.19 and the koff was 0.000109 s⁻¹.
